# Experimental data reported in PMC3501478, “Structure of the Human Discs Large 1 PDZ2– Adenomatous Polyposis Coli Cytoskeletal Polarity Complex: Insight into Peptide Engagement and PDZ Clustering” (PLoS ONE, 2012).
# No end group written: not given here. TMR = tetramethyl rhodamine
# Target: T1, human Discs Large 1 (hDlg1) PDZ2 domain, residues 310-407 (human, UniProt Q12959 310-407)
# T1 construct: N-terminal gly-ser cloning artifact left on the PDZ2 domain after thrombin cleavage of GST; human Discs Large 1 (Dlg1), PDZ2 domain, residues 310-407; synthetic gene with E. coli codon usage in pGEX-2T; In the final model chain A holds residues 310-406, with R310 modelled as alanine; also called hDlg PDZ2; source: E. coli BL21 DE3 pLysS, purified (Glutathione Sepharose, thrombin cleavage, SP …)
# Test: crystal structure; 1.4 mM Dlg1 PDZ2 incubated with 1.7 mM APC C-terminal peptide (1:1.2) in 100 mM NaCl, 25 mM Tris pH 7.0, 0.1% beta-mercaptoethanol; hanging drop, 200 mM sodium acetate, 100 mM sodium cacodylate pH 6.25, 28% PEG 8000, 20°C; space group P212121, 2.0 Å
# Conditions: both partners purified
# T1 sequence (Q12959 other isoform, or with tags, fused parts or gaps): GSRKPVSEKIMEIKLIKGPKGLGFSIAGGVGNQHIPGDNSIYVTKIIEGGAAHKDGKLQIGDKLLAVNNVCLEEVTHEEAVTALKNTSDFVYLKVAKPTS
binder,measurement,value
"{TMR}-RHSGSYLVTSV (human Adenomatous Polyposis Coli (APC), C-terminal 11 residues 2833-2843 of the 2843 amino acid protein; Only residues 2838-2843 are seen in the electron density; the TMR fluorophore and the N-terminal five residues are not; also called APC peptide; TMR-APC peptide; source: synthetic peptide (Yale Keck Biotechnology Resource Laboratory), purified by HPLC) [APC C-terminal peptide RHSGSYLVTSV (residues 2833-2843) with N-terminal tetramethyl rhodamine]",binding result,binds
